B1: Zinc finger MYM-type protein 3, residues 589 to 668; numbered along this chain, Q14202 (parent)
chain: LSCHYCHSLFSGKPEVLDWQDQVFQFCCRDCCEDFKRLRGVVSQCEHCRQEKLLHEKLRFSGVEKSFCSEGCVLLYKQDF

Variants of: B1
Test: abundance fitness (aPCA) (normalised: wild type 0, dead -1); higher = more abundant; growth selection in yeast, the domain comes from the species named
Conditions: Homo sapiens

Abundance fitness: each site, then its substitutions
V42: E -0.041, M 0.422, Q -0.203, P 0.176, T 0.388, R -0.085, G -0.265, W -0.01
F35: W -0.118, Y -0.177, I -0.624, D -0.549, C -0.467, A -0.079, M -0.071, V -0.587, R -0.726, G -0.317, K -0.529, S -0.411, L -0.641, E -0.157, T -0.607, H -0.219, N -0.924, P -0.842, Q -0.421
V41: T -0.243, G 0.056, K 0.398, A -0.208, E 0.079, I 0.195, R 0.003, N 0.317, L -0.181
R37: A 0.057, P -0.097, G -0.045, D -0.238, E -0.084, W -0.065, C -0.374, M -0.086, L 0.095, V 0.097, Q 0.254, S 0.123, K -0.343
K52: C 0.546, G -0.07, M -0.118, R -0.315, S -0.371, W -0.699, E -0.785, P -0.998, V -0.478, A -0.244
L54: S -0.542, I 0.201, R -0.664, G -0.536, D -0.589, E -0.866, A -0.41, H -0.503, T -0.226, V -0.046
L53: V -0.056, S -0.154, R -0.327, A -0.313, W -0.676, E 0.064, P -0.091, T -0.196, K 0.187, N -0.163, Q -0.255, G -0.445, M -0.234
L38: W 0.243, T 0.264, V 0.013, E 0.302, Y -0.041, S 0.05, R 0.087, P 0.062, I 0.063, C 0.11
E46: K 0.233, W -0.245, P 0.996, D 0.228, C 0.271, T 0.24, G 0.085, R -0.741, S 0.385, M -0.631, L -0.116, Y -0.354, Q 0.281, A 0.932
C31: S -0.986, I -1.02, D -0.545, E -0.573, M -0.778, P -1.02, T -1.02, G -0.8, R -0.901, A -0.655, V -1.14, Q -0.668, W -1.26
C48: R -0.553, V -0.741, P 0.207, A -0.845, W -0.329, T -1.05, L -0.578, E -1.04, S -0.561, K 0.19
R39: K -0.146, Q 0.288, E -0.159, A -0.417, M 0.032, C 0.272, L -0.282, G 0.424
R29: Y 0.26, P 0.068, S 0.009, H 0.275, T -0.002, I 0.014, K 0.002, M 0.235, N 0.206, W -0.049
Q44: L 0.854, A 0.702, Y 1.13, R 0.889, P 0.818, M 0.576, F 1.01, T 0.959, D 0.204, I 0.547, K 1.04, G 0.185, E 0.49, W 0.53, C 0.397, V 0.767, S 0.39
S43: M 0.105, F -0.144, P -0.496, L -0.576, W -0.889, R -0.174, D -0.235, C -0.062, V 0.286, A -0.076, G 0.59, Q -0.339
E51: L -0.119, C 0.227, P 0.127, G -0.393, W 0.537, R -0.198, A -0.394, T -0.096, V -0.143, D 0.187, Q 0.003, H 0.675, I -0.546
Q50: E -0.242, M 0.172, T -0.293, Y -0.312, G -0.436, S -0.356, C -0.013, K -0.071, W -0.582, R 0.01, P -0.48, A -0.641, L -0.542
R49: Y -0.618, V -0.785, K -0.084, S 0.283, E -0.361, A -0.507, T -0.352, D -0.485, M -0.482, F -0.38, L -0.131, W -0.327
H47: P -0.742, A -0.169, K 0.075, R -0.098, M -0.061, Q 0.151, E -0.406, W 0.246, S -0.098, C 0.345, L -0.388, V 0.075
C45: Q -1, L -0.867, Y -1.18, S -0.942, F -0.356, D -0.658, R -0.742, E -1.07, T -0.641, A -0.666, P -1.1, W -0.983, G -0.603
H55: E -0.392, P 0.106, Q -0.516, I 0.199, D 0.35, G -0.126, A -0.286, C -0.053, R 0.057, F 0.109, K -0.04, N 0.027
D34: M 0.17, K -0.008, S -0.164, V -0.079, Q -0.136, P -0.384, R -0.093, H -0.057, G 0.024, W -0.1, Y 0.105, T -0.178, A 0.064, F -0.192, I -0.18, E -0.01
D30: M 0.3, E 0.014, N -0.069, F -0.263, S 0.055, W -0.227, G 0.057, T 0.131, V 0.109, K 0.104, C 0.008, L -0.012, I -0.243, Q -0.036, A 0.027, Y -0.164
K36: R -0.077, L -0.101, E -0.01, F -0.088, I -0.313, S -0.048, P -0.615, M 0.229, W -0.181, H -0.089, C -0.294, T -0.011, A -0.077, Q 0.034, Y -0.561, N -0.251, G -0.019
C32: G -0.253, E -0.203, D -0.521, P -0.574, L -0.027, T -0.108, F -0.237, M 0.214, A -0.026, Y 0.067, S -0.227, V 0.038, Q -0.08, W -0.403, R -0.176, I -0.113, N -0.239, K 0.157
E33: H 0.124, L -0.171, A -0.037, R -0.193, P -0.811, D 0.072, T -0.093, Y -0.173, N -0.018, C -0.151, F -0.103, G -0.157, V -0.081, Q -0.038, K -0.353, W -0.254

From the Human Domainome abundance scans (Beltran et al. 2025)
